Assay results from PMC11213015.

B1: ZE (UpxZ of the PSE operon, Bacteroides fragilis) (natural protein)
chain: MNTLMTQIHELQHVAHELLYLGADGSPIYTDSFRQLNTEVLQKSDALFALKGENPEEEARLCLALLMGYNATIYDYGDKESKKQVILDRSLLVLESLPSSLLKCQLLTYCYGEVFEEELAKEAHAIIDYWDNKTLSIDEQETVDMLKMIEENQYPNNYID
B2: ZA (UpxZ of the PSA operon, Bacteroides fragilis) (natural protein)
chain: MNQVQNLQHIARELLYLGMDGSPIYTDHFRQLNTEVFRLSEALFSMKGATSEEEAAICLSLLMGYNATIYNDGDKESKIQSILDRSFAVLDHLPASLLKCQLLTYCYGEVFEEDLAQEAHQIMDSWKNRALSEEELEVMETLQTMEDNRYPCSEVED

Target: biotinylated-YE (UpxY of the PSE operon, Bacteroides fragilis) (Bacteroides fragilis NCTC 9343)
Test: BLI

| Kd [nM] | koff [s⁻¹] | kon [M⁻¹ s⁻¹] | Binder |
| --- | --- | --- | --- |
| 88 | 0.0096 | 110000 | B1 |
| 0.9 |  | 1.1e+06 | B2 |
